Laboratory results as given in IntAct's records for PubMed 11231575.

Target: arp3_bovin ACTR3 (UniProt P61157)

| effect of a mutation on the interaction | Substance |
| --- | --- |
| disrupting interaction | Src substrate cortactin (Mus musculus), Q60598 D20G;D21A |
| disrupting interaction | Src substrate cortactin (Mus musculus), Q60598 W22A |
